In patent US6066472:

Biological target: myelin basic protein, 32P-labeled on tyrosine residues

In the case of “PTPL1 protein tyrosine phosphatase (from UniProt Q12923) (enzyme)”, the dephosphorylation (radioactivity released as inorganic phosphate, percentage of total input) is reported as > 30%.
